Experimental data: patent publication US20240279325A1 (Chugai, published 2024)

Columns and labels:
mouse FcγRI = biological target: T1, mouse FcγRI (mouse, UniProt P26151 25-297); test: SPR (Biacore)
T1 construct: also called mFcγRI
T1 sequence (looked up): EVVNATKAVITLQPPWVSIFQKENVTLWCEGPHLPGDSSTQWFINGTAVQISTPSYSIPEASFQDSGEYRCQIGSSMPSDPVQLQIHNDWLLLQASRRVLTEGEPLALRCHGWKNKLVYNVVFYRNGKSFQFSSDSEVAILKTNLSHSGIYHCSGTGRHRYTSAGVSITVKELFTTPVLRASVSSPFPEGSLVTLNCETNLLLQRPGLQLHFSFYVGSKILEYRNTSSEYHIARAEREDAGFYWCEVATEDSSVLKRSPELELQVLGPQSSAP

mouse FcγRIV = biological target: T2, mouse FcγRIV (mouse, UniProt A0A0B4J1G0 21-203); test: SPR (Biacore)
T2 construct: also called mFcγRIV; not shown: purification tag of the soluble receptor (probably a His tag)
T2 sequence: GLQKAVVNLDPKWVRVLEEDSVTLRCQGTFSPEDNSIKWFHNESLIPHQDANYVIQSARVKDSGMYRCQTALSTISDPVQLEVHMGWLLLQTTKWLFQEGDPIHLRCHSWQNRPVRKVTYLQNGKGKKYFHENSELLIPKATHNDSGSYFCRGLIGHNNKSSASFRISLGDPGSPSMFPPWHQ

binding result (mouse FcγRI): no binding
binding result (mouse FcγRIV): no binding
B1: VH3/L (WT)-mIgG1 (antibody)
heavy: QVQLQESGPGLVKPSETLSLTCAVSGHSISHDHAWSWVRQPPGEGLEWIGFISYSGITNYNPSLQGRVTISRDNSKNTLYLQMNSLRAEDTAVYYCARSLARTTAMDYWGEGTLVTVSSAKTTPPSVYPLAPGSAAQTNSMVTLGCLVKGYFPEPVTVTWNSGSLSSGVHTFPAVLQSDLYTLSSSVTVPSSTWPSETVTCNVAHPASSTKVDKKIVPRDCGCKPCICTVPEVSSVFIFPPKPKDVLTITLTPKVTCVVVDISKDDPEVQFSWFVDDVEVHTAQTQPREEQFNSTFRSVSELPIMHQDWLNGKEFKCRVNSAAFPAPIEKTISKTKGRPKAPQVYTIPPPKEQMAKDKVSLTCMITDFFPEDITVEWQWNGQPAENYKNTQPIMDTDGSYFVYSKLNVQKSNWEAGNTFTCSVLHEGLHNHHTEKSLSHSPGK
light: not shown
notes: copies: 2 + 2
